B1: Elongin-A2 (Homo sapiens), Q8IYF1 (parent)
chain: MAAGSTTLHAVEKLQVRLATKTEPKKLEKYLQKLSALPMTADILAETGIRKTVKRLRKHQHVGDFARDLAARWKKLVLVDRNTRPGPQDPEESASRQRFGEALQDQEKAWGFPENATAPRSPSHSPEHRRTARRTPPGQQRPHPRSHSREPRAERKCPRIAPADSGRYRASPTRTAPLRMPEGPEPAAPGKQPGRGHTHAAQGGPLLCPGCQGQPQGKAVVSHSKGHKSSRQEKRPLCAQGDWHSPTLIREKSCGACLREETPRMPSWASARDRQPSDFKTDKEGGQAGSGQRVPALEEAPDSHQKRPQHSHSNKKRPSLDGRDPGNGTHGLSPEEKEQLSNDRETQEGKPPTAHLDRTSVSSLSEVEEVDMAEEFEQPTLSCEKYLTYDQLRKQKKKTGKSATTALGDKQRKANESKGTRESWDSAKKLPPVQESQSERLQAAGADSAGPKTVPSHVFSELWDLSEAWMQANYDPLSDSDSMTSQAKPEALSSPKFREEAAFPGRRVNAKMPVYSGSRPACQLQVPTLRQQCAQVLRNNPDALSDVGEVPYWVLEPVLEGWRPDQLYRRKKDNHALVRETDELRRNHCFQDFKEEKPQENKTWREQYLRLPDAPEQRLRVMTTNIRSARGNNPNGREAKMICFKSVAKTPYDTSRRQEKSAGDADPENGEIKPASKPAGSSHTPSSQSSSGGGRDSSSSILRWLPEKRANPCLSSSNEHAAPAAKTRKQAAKKVAPLMAKAIRDYKRRFSRR
partner: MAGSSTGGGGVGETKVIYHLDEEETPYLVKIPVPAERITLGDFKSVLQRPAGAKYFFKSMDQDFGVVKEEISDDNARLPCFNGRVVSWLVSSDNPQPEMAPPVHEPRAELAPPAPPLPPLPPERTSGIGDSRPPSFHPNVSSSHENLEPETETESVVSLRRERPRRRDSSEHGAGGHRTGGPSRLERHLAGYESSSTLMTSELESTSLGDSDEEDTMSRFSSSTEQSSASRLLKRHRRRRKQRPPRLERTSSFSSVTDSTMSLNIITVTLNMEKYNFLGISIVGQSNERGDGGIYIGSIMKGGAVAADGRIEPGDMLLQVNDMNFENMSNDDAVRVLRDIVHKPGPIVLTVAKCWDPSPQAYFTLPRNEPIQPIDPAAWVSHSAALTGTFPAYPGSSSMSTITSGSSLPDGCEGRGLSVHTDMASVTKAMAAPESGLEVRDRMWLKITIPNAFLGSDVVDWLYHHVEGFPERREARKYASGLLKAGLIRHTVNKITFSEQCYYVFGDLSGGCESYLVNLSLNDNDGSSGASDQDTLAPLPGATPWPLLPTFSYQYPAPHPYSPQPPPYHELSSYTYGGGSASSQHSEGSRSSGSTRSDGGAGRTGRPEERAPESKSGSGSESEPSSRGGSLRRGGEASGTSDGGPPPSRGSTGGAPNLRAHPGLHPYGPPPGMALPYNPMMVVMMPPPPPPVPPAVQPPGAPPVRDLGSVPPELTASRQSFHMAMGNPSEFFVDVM
B2: Huntingtin-interacting protein 1 (Homo sapiens), O00291 (parent)
chain: MDRMASSMKQVPNPLPKVLSRRGVGAGLEAAERESFERTQTVSINKAINTQEVAVKEKHARTCILGTHHEKGAQTFWSVVNRLPLSSNAVLCWKFCHVFHKLLRDGHPNVLKDSLRYRNELSDMSRMWGHLSEGYGQLCSIYLKLLRTKMEYHTKNPRFPGNLQMSDRQLDEAGESDVNNFFQLTVEMFDYLECELNLFQTVFNSLDMSRSVSVTAAGQCRLAPLIQVILDCSHLYDYTVKLLFKLHSCLPADTLQGHRDRFMEQFTKLKDLFYRSSNLQYFKRLIQIPQLPENPPNFLRASALSEHISPVVVIPAEASSPDSEPVLEKDDLMDMDASQQNLFDNKFDDIFGSSFSSDPFNFNSQNGVNKDEKDHLIERLYREISGLKAQLENMKTESQRVVLQLKGHVSELEADLAEQQHLRQQAADDCEFLRAELDELRRQREDTEKAQRSLSEIERKAQANEQRYSKLKEKYSELVQNHADLLRKNAEVTKQVSMARQAQVDLEREKKELEDSLERISDQGQRKTQEQLEVLESLKQELATSQRELQVLQGSLETSAQSEANWAAEFAELEKERDSLVSGAAHREEELSALRKELQDTQLKLASTEESMCQLAKDQRKMLLVGSRKAAEQVIQDALNQLEEPPLISCAGSADHLLSTVTSISSCIEQLEKSWSQYLACPEDISGLLHSITLLAHLTSDAIAHGATTCLRAPPEPADSLTEACKQYGRETLAYLASLEEEGSLENADSTAMRNCLSKIKAIGEELLPRGLDIKQEELGDLVDKEMAATSAAIETATARIEEMLSKSRAGDTGVKLEVNERILGCCTSLMQAIQVLIVASKDLQREIVESGRGTASPKEFYAKNSRWTEGLISASKAVGWGATVMVDAADLVVQGRGKFEELMVCSHEIAASTAQLVAASKVKADKDSPNLAQLQQASRGVNQATAGVVASTISGKSQIEETDNMDFSSMTLTQIKRQEMDSQVRVLELENELQKERQKLGELRKKHYELAGVAEGWEEGTEASPPTLQEVVTEKE
partner: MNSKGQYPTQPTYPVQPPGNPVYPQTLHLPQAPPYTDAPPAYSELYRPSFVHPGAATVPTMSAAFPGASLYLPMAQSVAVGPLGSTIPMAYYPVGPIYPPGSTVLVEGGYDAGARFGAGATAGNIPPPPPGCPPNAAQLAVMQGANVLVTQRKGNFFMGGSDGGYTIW
B3: Nuclear autoantigen Sp-100 (Homo sapiens), P23497 (parent)
chain: MAGGGGDLSTRRLNECISPVANEMNHLPAHSHDLQRMFTEDQGVDDRLLYDIVFKHFKRNKVEISNAIKKTFPFLEGLRDRDLITNKMFEDSQDSCRNLVPVQRVVYNVLSELEKTFNLPVLEALFSDVNMQEYPDLIHIYKGFENVIHDKLPLQESEEEEREERSGLQLSLEQGTGENSFRSLTWPPSGSPSHAGTTPPENGLSEHPCETEQINAKRKDTTSDKDDSLGSQQTNEQCAQKAEPTESCEQIAVQVNNGDAGREMPCPLPCDEESPEAELHNHGIQINSCSVRLVDIKKEKPFSNSKVECQAQARTHHNQASDIIVISSEDSEGSTDVDEPLEVFISAPRSEPVINNDNPLESNDEKEGQEATCSRPQIVPEPMDFRKLSTFRESFKKRVIGQDHDFSESSEEEAPAEASSGALRSKHGEKAPMTSRSTSTWRIPSRKRRFSSSDFSDLSNGEELQETCSSSLRRGSGSQPQEPENKKCSCVMCFPKGVPRSQEARTESSQASDMMDTMDVENNSTLEKHSGKRRKKRRHRSKVNGLQRGRKKDRPRKHLTLNNKVQKKRWQQRGRKANTRPLKRRRKRGPRIPKDENINFKQSELPVTCGEVKGTLYKERFKQGTSKKCIQSEDKKWFTPREFEIEGDRGASKNWKLSIRCGGYTLKVLMENKFLPEPPSTRKKRILESHNNTLVDPCEEHKKKNPDASVKFSEFLKKCSETWKTIFAKEKGKFEDMAKADKAHYEREMKTYIPPKGEKKKKFKDPNAPKRPPLAFFLFCSEYRPKIKGEHPGLSIDDVVKKLAGMWNNTAAADKQFYEKKAAKLKEKYKKDIAAYRAKGKPNSAKKRVVKAEKSKKKKEEEEDEEDEQEEENEEDDDK
partner: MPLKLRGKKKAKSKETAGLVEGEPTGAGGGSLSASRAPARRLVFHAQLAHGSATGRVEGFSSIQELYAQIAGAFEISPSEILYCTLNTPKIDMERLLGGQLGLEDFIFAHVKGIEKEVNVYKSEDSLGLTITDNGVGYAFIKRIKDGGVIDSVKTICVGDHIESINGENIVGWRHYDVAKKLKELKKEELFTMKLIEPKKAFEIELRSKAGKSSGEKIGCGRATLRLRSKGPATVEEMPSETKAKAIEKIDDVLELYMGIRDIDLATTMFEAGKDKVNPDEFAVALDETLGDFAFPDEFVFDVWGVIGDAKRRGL
B4: ATP synthase mitochondrial F1 complex assembly factor 2 (Homo sapiens), Q8N5M1 (parent)
chain: MWRSCLRLRDGGRRLLNRPAGGPSASMSPGPTIPSPARAYAPPTERKRFYQNVSITQGEGGFEINLDHRKLKTPQAKLFTVPSEALAIAVATEWDSQQDTIKYYTMHLTTLCNTSLDNPTQRNKDQLIRAAVKFLDTDTICYRVEEPETLVELQRNEWDPIIEWAEKRYGVEISSSTSIMGPSIPAKTREVLVSHLASYNTWALQGIEFVAAQLKSMVLTLGLIDLRLTVEQAVLLSRLEEEYQIQKWGNIEWAHDYELQELRARTAAGTLFIHLCSESTTVKHKLLKE
partner: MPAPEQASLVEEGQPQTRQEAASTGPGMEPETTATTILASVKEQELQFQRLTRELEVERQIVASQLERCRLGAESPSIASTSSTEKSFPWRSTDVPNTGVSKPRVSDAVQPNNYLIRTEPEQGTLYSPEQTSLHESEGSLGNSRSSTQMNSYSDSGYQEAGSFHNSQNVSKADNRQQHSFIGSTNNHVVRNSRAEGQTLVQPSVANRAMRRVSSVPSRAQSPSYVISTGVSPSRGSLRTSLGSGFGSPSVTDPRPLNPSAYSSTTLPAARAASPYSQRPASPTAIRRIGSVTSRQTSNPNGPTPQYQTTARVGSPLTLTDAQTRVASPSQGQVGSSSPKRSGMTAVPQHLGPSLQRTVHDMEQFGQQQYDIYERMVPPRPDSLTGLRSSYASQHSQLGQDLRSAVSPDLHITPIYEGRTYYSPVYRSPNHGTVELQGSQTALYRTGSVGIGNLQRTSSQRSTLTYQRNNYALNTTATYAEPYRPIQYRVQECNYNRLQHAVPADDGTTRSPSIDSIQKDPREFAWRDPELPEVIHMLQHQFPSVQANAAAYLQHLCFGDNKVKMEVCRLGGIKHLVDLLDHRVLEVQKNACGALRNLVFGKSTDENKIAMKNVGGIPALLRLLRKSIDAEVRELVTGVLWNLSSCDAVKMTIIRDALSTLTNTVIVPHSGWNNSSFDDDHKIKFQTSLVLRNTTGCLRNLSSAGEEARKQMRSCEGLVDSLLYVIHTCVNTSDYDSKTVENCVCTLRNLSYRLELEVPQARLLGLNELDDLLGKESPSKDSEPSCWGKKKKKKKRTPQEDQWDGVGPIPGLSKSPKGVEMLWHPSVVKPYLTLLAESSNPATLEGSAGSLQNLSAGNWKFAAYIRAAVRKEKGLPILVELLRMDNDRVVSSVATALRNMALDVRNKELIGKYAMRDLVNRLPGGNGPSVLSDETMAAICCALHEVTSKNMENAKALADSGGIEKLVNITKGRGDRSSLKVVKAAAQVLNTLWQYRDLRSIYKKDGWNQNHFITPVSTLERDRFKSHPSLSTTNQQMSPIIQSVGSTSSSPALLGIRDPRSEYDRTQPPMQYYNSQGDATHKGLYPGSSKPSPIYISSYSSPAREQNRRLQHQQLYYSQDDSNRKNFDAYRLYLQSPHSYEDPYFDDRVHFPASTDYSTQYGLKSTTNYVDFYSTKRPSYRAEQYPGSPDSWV

The source of these data is IntAct's records for PubMed 31515488.

The variants in one assay derive from B1. The note with it: with dvl2_human DVL2, O14641.
Turning to T6S, the “effect of a mutation on the interaction” value was “with no effect”.
Consider C254F, for which the “effect of a mutation on the interaction” value was “with no effect”.
On to A403S, for which the “effect of a mutation on the interaction” value is on record as “with no effect”.
Same read-out and setting: with G505R the entry was “with no effect”.
The same measure, in the same setting: next, R498Q: “with no effect”; R179P: “with no effect”.
On the same count and under the same terms, with A446T the entry was “with no effect”; with D302H, “with no effect”.

Variants of B2 are the subject of another assay. The note with it: with dazp2_human DAZAP2, Q15038.
For the variant M263K, the “effect of a mutation on the interaction” value was “with no effect”.

In the next assay the parent is B3. The note with it: with gipc2_human GIPC2, Q8TF65.
With M433V, the “effect of a mutation on the interaction” value is given as “with no effect”.

The variants in a further assay derive from B4. To be noted: with pkp4_human PKP4, Q99569.
With E241G, the “effect of a mutation on the interaction” value is “with no effect”.
